Source: patent EP4559472A1 (Universität Ulm, dated 2025)

Biological target: T1, Biotinylated C4d (UniProt P0C0L4 957-1336, limits assumed, biotinylated (thioester moiety; NHS-PEG4-Biotin Kit))
T1 construct: domain: C4d; also called C4d (biotinylated, on streptavidin sensor chip)
T1 sequence (looked up): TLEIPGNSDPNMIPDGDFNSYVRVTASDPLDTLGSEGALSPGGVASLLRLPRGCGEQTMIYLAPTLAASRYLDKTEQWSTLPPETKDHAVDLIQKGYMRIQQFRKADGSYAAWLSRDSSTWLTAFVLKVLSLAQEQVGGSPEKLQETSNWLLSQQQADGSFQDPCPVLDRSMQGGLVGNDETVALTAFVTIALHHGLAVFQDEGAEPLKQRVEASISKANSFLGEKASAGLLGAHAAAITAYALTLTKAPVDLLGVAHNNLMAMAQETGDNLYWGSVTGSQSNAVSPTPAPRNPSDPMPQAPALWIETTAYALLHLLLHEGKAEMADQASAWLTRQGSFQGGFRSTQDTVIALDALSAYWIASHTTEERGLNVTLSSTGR
Test: SPR, biotinylated C4d on streptavidin chip

binding result: no binding
B1: FH(15-18) (other, human, UniProt P08603 868-1104, looked up)
chain: IPCSQPPQIEHGTINSSRSSQESYAHGTKLSYTCEGGFRISEENETTCYMGKWSSPPQCEGLPCKSPPEISHGVVAHMSDSYQYGEEVTYKCFEGFGIDGPAIAKCLGEKWSHPPSCIKTDCLSLPSFENAIPMGEKKDVYKAGEQVTYTCATYYKMDGASNVTCINSRWTGRPTCRDTSCVNPPTVQNAYIVSRQMSKYPSGERVRYQCRSPYEMFGDEEVMCLNGNWTEPPQCKD
notes: domain: protein domains 15-18; Control protein; also called protein domains 15-18 of FH
